According to US20110294730A1, “METHOD OF TREATING GLAUCOMA AND INTRAOCULAR HYPERTENSION” (priority 2010, published 2011):

How the values were obtained:
[1] = test system: trabecular meshwork; conditions: cited from earlier work
[2] = Curcumin eye drops, retinal damage due to glaucoma; format: in vivo; conditions: curcumin 1 to 5 percent in normal saline
Text: We have used curcumin diluted in the normal saline from 1 to 5 percent after extracting it from turmeric using solvents such as DMSO and alcohol as well other known solvents. […] The sclera can be stained yellow that can be mistaken for jaundice. All the above antioxidants can be used with insulin as described above and there is no systemic reaction.

[3] = patients treated with latanoprost; cited from earlier work
[4] = […] eye drops; cited from earlier work
[5] = in vivo; cited from earlier work

| Compound | extracellular acidification [1] | Effective duration of action [5] [h] | Maximum duration [5] [h] | Onset of Action [5] | Peak action [5] | other results |
| --- | --- | --- | --- | --- | --- | --- |
| 11-Ib: exogenous growth factor | significantly stimulated | – | – | – | – | – |
| COc1cc(/C=C/C(=O)CC(=O)/C=C/c2ccc(O)c(OC)c2)ccc1O [curcumin] | – | – | – | – | – | improving the retinal damage [2]: very effective |
| CC(C)OC(=O)CCC/C=C\C[C@@H]1[C@@H](CC[C@@H](O)CCc2ccccc2)[C@H](O)C[C@@H]1O [latanoprost] | – | – | – | – | – | increased iris pigmentation, share of patients [3]: ≤ 17% |
| CNC(=O)Oc1ccc2c(c1)[C@]1(C)CCN(C)[C@@H]1N2C [physostigmine sulphate] | – | – | – | – | – | miosis [4]: sustained miosis |
| EGF: exogenous growth factor | significantly stimulated | – | – | – | – | – |
| FGF-1: exogenous growth factor | significantly stimulated | – | – | – | – | – |
| HGF: exogenous growth factor | significantly stimulated | – | – | – | – | – |
| IGF-1: insulin like growth factor | significantly stimulated | – | – | – | – | – |
| Insulin aspart [Insulin aspart (NovoLog)] | – | 3 to 4 | 4 to 6 | ¼-½ | ½-1¼ | – |
| Insulin detemir [Insulin detemir (Levemir)] | – | 14 | ~20 | 3 to 4 h | 6 to 8 h | – |
| Insulin glargine [Insulin glargine (Lantus)] | – | 18 to 20 | 20 to 24 | 3 to 4 h | 8 to 16 h | – |
| Insulin glulisine [Insulin glulisine (Apidra)] | – | 3 to 4 | 4 to 6 | ¼-½ | ½-1¼ | – |
| Insulin lispro [Insulin lispro (Humalog)] | – | 3 to 4 | 4 to 6 | ¼-½ | ½-1¼ | – |
| NPH (isophane): intermediate-acting NPH (isophane) insulin | – | 10 to 16 | 14 to 18 | 2 to 4 h | 6 to 10 h | – |
| Regular (soluble): short-acting regular (soluble) insulin | – | 3 to 6 | 6 to 8 | – | 2 to 3 h | – |
| TGF-a: exogenous growth factor | significantly stimulated | – | – | – | – | – |
| TNF-a | significantly stimulated | – | – | – | – | – |
